Experimental data: publication PMC3327807

Substrate: Nc1ncnc2c1ncn2[C@@H]1O[C@H](CO)[C@@H](O)[C@H]1O
Assay: UV spectrophotometric deamination kinetics
Assay type: biochemical, Plasmodium vivax
Details: zinc

B1: P. vivax adenosine deaminase (pvADA) (Plasmodium vivax Sal-1) (protein)
chain: MNILQEPIDFLKKEELKNIDLSQMSKKERYKIWKRIPKCELHCHLDLCFSADFFVSCIRKYNLQPNLSDEEVLDYYLFAKGGKSLGEFVEKAIKVADIFHDYEVIEDLAKHAVFNKYKEGVVLMEFRYSPTFVAFKYNLDIELIHQAIVKGIKEVVELLDHKIHVALMCIGDTGHEAANIKASADFCLKHKADFVGFDHGGHEVDLKEYKEIFDYVRESGVPLSVHAGEDVTLPNLNTLYSAIQVLKVERIGHGIRVAESQELIDMVKEKNILLEVCPISNVLLKNAKSMDTHPIRQLYDAGVKVSVNSDDPGMFLTNINDDYEELYTHLNFTLEDFMKMNEWALEKSFMDSNIKDKIKNLYF
  Km: 71 ± 16 µM
